# Results as given in publication PMC3938503.
# Target: T1, CRPM (cAMP receptor protein of Mtb) (Mycobacterium tuberculosis) (UniProt P9WMH3)
# T1 sequence: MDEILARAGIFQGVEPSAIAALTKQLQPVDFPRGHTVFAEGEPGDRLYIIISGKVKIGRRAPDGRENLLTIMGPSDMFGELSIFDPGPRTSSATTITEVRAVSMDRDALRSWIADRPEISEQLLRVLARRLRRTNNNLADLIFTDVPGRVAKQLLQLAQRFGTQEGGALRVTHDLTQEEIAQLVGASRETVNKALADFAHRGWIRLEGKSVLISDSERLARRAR
# Experiment: EMSA
sequence,measurement,value
TCAGCGACCGTCAGCACGCCAGTTCAATACGGCGAGAAGCGCGTTCTCATCGAAAGTCGGTCAAGCTGGCGGACTGAGCACTGCTCTCCGGGCTTGACCGGGGCCTCTCCCAGCTACGCCCCGAGCGTGTGCCCTGCCGACACGCGGGAACAAGACCCGCACGACCAGCGTTAGCATGCTCAGTAAGTTGAGTGCATCAGGCTCAGCTCTGAATTGACAGCACACCGCCGTCGAGGCAAGCTTGAGCGGGGTGCACTCATCATAGTGCAGGAAAGAAGCTCTACATATTCAGGAGGATTCACC (double strand) [dnaK-303],binding signal (fold reduced vs dnaK-346),2
